Patent US20060251625A1 (published 2006)

T1: TNF Receptor Associated Factor 2 TRAF2 (UniProt Q12933 1-501, limits assumed)
T1 sequence (looked up): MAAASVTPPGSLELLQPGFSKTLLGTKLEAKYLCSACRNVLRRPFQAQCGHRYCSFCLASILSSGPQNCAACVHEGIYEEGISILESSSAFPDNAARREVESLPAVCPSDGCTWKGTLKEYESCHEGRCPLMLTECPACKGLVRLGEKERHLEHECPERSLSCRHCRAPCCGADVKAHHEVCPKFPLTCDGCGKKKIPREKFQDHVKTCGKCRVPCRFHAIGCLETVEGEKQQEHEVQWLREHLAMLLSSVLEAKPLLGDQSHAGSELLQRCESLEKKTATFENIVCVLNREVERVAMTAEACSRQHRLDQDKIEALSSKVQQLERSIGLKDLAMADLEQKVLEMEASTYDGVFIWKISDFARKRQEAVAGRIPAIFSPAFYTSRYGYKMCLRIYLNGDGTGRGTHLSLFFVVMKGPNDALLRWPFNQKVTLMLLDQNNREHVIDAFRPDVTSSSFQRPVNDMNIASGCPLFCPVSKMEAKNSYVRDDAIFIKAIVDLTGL

T2: Receptor Interacting Protein RIP (UniProt Q13546 1-671, limits assumed)
T2 sequence (looked up): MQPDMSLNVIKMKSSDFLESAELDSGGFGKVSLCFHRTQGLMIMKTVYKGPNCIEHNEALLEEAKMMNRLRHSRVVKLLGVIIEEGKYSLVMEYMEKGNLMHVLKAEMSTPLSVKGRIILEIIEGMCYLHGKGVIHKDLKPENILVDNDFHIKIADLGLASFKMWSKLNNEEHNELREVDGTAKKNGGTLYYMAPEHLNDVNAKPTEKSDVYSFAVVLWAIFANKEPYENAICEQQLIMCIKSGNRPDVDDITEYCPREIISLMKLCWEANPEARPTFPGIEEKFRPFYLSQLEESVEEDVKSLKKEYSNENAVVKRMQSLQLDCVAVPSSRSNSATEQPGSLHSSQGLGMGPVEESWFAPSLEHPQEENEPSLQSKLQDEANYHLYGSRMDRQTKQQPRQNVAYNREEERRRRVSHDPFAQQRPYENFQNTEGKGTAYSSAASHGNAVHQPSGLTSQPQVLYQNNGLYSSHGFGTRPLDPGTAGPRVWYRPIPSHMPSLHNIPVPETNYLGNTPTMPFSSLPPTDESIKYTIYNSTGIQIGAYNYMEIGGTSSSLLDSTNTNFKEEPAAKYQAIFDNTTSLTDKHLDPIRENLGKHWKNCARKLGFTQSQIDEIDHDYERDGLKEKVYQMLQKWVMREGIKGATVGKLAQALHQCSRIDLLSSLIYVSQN

T3: IKK2 (HA epitope-tagged, expressed from pHA-IKK2), O14920
T3 chain: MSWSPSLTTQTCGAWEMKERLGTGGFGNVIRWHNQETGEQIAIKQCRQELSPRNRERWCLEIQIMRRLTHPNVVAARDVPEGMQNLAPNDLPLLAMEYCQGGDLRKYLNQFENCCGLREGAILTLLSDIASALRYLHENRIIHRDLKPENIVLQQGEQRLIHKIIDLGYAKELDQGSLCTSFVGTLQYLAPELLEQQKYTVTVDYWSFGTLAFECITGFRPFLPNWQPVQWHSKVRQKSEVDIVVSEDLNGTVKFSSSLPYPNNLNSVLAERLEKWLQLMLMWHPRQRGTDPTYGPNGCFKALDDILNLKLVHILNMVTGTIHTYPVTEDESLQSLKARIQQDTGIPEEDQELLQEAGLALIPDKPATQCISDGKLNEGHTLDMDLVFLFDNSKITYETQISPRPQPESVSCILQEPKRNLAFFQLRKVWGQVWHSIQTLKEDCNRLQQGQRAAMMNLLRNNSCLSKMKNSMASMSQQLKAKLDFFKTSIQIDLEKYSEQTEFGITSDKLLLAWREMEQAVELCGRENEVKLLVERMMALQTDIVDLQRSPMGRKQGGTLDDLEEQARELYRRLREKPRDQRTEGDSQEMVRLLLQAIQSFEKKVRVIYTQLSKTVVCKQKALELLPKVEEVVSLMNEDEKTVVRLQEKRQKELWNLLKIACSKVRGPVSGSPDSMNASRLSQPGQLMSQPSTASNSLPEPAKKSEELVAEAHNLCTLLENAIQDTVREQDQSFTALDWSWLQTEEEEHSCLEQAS

B1: Molluscum contagiosum virus (MCV) MC160 protein (other)
chain: MAHEPIPFSFLRNLLAELDASEHEVLRFLCRDVAPASKTAEDALRALQRRRLLTLSSMAELLCALRRFDVLKVRFGMTRECAGRLLGHGFLSQYRLQVAAINNMVGSEDLRVMCLCAGKLLPPSCTPRCLVDLVSALEDAGAISPQDVSVLVTLLHAVCRYDLSVALSAVAHGHMTVGVGTPVQDEPMDVLEVDDAEPMEATPACDEIGVVKLAGAASAGAPLADGAFAACTSAGKGEDLATSDLTDSEPEDSVFAVADPVYADVDLSMFVRANATADSSMFVNADAGADSSLVNADAGADSSLVNADAGADSSLVNAVADANSSLMRTTSACTDSEPEDSAGPSCAGMALSMFGRAKSVSSLLLRTKASY
notes: also called wild type MC160
B2: IKK1 (FLAG epitope-tagged, expressed from pFLAG-IKK1) (protein)
chain: MERPPGLRPGAGGPWEMRERLGTGGFGNVCLYQHRELDLKIAIKSCRLELSTKNRERWCHEIQIMKKLNHANVVKACDVPEELNILIHDVPLLAMEYCSGGDLRKLLNKPENCCGLKESQILSLLSDIGSGIRYLHENKIIHRDLKPENIVLQDVGGKIIHKIIDLGYAKDVDQGSLCTSFVGTLQYLAPELFENKPYTATVDYWSFGTMVFECIAGYRPFLHHLQPFTWHEKIKKKDPKCIFACEEMSGEVRFSSHLPQPNSLCSLVVEPMENWLQLMLNWDPQQRGGPVDLTLKQPRCFVLMDHILNLKIVHILNMTSAKIISFLLPPDESLHSLQSRIERETGINTGSQELLSETGISLDPRKPASQCVLDGVRGCDSYMVYLFDKSKTVYEGPFASRSLSDCVNYIVQDSKIQLPIIQLRKVWAEAVHYVSGLKEDYSRLFQGQRAAMLSLLRYNANLTKMKNTLISASQQLKAKLEFFHKSIQLDLERYSEQMTYGISSEKMLKAWKEMEEKAIHYAEVGVIGYLEDQIMSLHAEIMELQKSPYGRRQGDLMESLEQRAIDLYKQLKHRPSDHSYSDSTEMVKIIVHTVQSQDRVLKELFGHLSKLLGCKQKIIDLLPKVEVALSNIKEADNTVMFMQGKRQKEIWHLLKIACTQSSARSLVGSSLEGAVTPQTSAWLPPTSAEHDHSLSCVVTPQDGETSAQMIEENLNCLGHLSTIIHEANEEQGNSMMNLDWSWLTE

Tests used:
[1] = target: T4, IKK-γ subunit (endogenous, 293T cells) (human, UniProt Q9Y6K9 1-419); experiment: co-immunoprecipitation with anti-IKK-γ from 293T lysates, immunoblot (FIG. 7C)
T4 construct: also called endogenous IKK-γ

[2] = target: T1, TNF Receptor Associated Factor 2 TRAF2; experiment: not described (data not shown)
[3] = target: T2, Receptor Interacting Protein RIP; experiment: not described (data not shown)
[4] = target: T3, IKK2 (HA epitope-tagged, expressed from …)

T4 sequence (Q9Y6K9 whole entry): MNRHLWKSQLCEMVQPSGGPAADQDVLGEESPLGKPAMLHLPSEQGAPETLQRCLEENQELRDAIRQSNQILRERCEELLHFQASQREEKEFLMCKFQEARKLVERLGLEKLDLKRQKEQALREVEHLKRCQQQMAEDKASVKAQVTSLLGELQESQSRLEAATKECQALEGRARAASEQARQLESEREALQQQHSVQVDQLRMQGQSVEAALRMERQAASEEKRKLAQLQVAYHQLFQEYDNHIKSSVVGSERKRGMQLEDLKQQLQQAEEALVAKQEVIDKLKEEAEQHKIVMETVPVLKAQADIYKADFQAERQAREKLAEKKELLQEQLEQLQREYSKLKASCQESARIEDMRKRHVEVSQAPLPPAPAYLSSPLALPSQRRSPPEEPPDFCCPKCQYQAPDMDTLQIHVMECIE

| Binder | binding result [1] | binding result [2] | binding result [3] | phosphorylation of recombinant IκBα in an in vitro kinase assay of anti-IKK1 immunoprecipitates [4] |
| --- | --- | --- | --- | --- |
| B1 | no binding | no binding | no binding |  |
| B2 |  |  |  | a phosphorylated form of recombinant IκBα was easily detected |
